1 molecule from doi:10.1101/2020.09.09.290171 (bioRxiv, 2020) can be followed below.

This assay addresses T1, recombinant NRPD1 fused at its C-terminus to a FLAG epitope tag (Arabidopsis thaliana, UniProt Q9LQ02 1-1453).
T1 sequence: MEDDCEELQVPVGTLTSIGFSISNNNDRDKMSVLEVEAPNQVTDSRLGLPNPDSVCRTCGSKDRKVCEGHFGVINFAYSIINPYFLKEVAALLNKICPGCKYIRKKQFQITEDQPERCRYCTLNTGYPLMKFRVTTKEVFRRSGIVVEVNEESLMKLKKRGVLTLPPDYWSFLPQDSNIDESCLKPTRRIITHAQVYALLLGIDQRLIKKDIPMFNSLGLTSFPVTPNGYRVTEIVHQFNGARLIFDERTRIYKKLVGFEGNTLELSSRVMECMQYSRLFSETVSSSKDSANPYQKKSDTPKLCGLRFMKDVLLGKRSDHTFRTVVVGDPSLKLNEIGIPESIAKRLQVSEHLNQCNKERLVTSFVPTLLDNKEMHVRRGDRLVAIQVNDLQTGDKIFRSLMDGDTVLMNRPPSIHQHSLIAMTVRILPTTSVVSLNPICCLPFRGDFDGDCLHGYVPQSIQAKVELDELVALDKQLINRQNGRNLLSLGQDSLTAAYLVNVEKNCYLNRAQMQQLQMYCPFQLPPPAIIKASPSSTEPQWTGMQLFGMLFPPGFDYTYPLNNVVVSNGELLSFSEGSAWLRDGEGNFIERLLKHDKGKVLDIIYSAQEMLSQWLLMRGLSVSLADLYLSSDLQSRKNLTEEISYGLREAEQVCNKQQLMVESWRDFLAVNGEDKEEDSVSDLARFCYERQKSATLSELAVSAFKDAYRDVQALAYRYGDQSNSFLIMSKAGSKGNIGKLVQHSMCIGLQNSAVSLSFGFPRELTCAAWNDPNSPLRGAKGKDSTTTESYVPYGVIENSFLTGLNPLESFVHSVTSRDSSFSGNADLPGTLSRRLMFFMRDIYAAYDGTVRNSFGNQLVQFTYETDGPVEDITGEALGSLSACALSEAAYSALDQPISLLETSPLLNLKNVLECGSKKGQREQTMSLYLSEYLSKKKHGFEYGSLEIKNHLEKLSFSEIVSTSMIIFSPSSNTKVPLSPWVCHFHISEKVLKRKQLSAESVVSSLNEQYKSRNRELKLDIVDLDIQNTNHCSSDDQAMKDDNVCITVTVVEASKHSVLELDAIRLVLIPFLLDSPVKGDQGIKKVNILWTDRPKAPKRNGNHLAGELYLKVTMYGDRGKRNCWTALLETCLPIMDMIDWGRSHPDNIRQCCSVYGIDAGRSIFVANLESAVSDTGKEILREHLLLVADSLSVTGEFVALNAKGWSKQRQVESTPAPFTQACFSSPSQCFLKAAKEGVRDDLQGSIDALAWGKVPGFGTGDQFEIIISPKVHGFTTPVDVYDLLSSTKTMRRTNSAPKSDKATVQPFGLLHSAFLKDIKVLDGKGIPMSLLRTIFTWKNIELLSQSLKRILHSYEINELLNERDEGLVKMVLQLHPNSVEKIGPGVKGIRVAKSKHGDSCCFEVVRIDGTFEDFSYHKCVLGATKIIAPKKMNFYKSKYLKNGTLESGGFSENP
Kind of assay: co-IP.

B1: recombinant RDR2 (RNA-DEPENDENT RNA POLYMERASE 2), wild type, with N-terminal V5 epitope and 6xHis tags (enzyme)
chain: MVSETTTNRSTVKISNVPQTIVADELLRFLELHLGEDTVFALEIPTTRDNWKPRDFARVQFTTLEVKSRAQLLSSQSKLLFKTHNLRLSEAYDDIIPRPVDPRKRLDDIVLTVGFPESDEKRFCALEKWDGVRCWILTEKRRVEFWVWESGDCYKIEVRFEDIIETLSCCVNGDASEIDAFLLKLKYGPKVFKRVTVHIATKFKSDRYRFCKEDFDFMWIRTTDFSGSKSIGTSTCFCLEVHNGSTMLDIFSGLPYYREDTLSLTYVDGKTFASAAQIVPLLNAAILGLEFPYEILFQLNALVHAQKISLFAASDMELIKILRGMSLETALVILKKLHQQSSICYDPVFFVKTQMQSVVKKMKHSPASAYKRLTEQNIMSCQRAYVTPSKIYLLGPELETANYVVKNFAEHVSDFMRVTFVEEDWSKLPANALSVNSKEGYFVKPSRTNIYNRVLSILGEGITVGPKRFEFLAFSASQLRGNSVWMFASNEKVKAEDIREWMGCFRKIRSISKCAARMGQLFSASRQTLIVRAQDVEQIPDIEVTTDGADYCFSDGIGKISLAFAKQVAQKCGLSHVPSAFQIRYGGYKGVIAVDRSSFRKLSLRDSMLKFDSNNRMLNVTRWTESMPCFLNREIICLLSTLGIEDAMFEAMQAVHLSMLGNMLEDRDAALNVLQKLSGENSKNLLVKMLLQGYAPSSEPYLSMMLRVHHESQLSELKSRCRILVPKGRILIGCMDEMGILEYGQVYVRVTLTKAELKSRDQSYFRKIDEETSVVIGKVVVTKNPCLHPGDIRVLDAIYEVHFEEKGYLDCIIFPQKGERPHPNECSGGDLDGDQFFVSWDEKIIPSEMDPPMDYAGSRPRLMDHDVTLEEIHKFFVDYMISDTLGVISTAHLVHADRDPEKARSQKCLELANLHSRAVDFAKTGAPAEMPYALKPREFPDFLERFEKPTYISESVFGKLYRAVKSSLAQRKPEAESEDTVAYDVTLEEAGFESFIETAKAHRDMYGEKLTSLMIYYGAANEEEILTGILKTKEMYLARDNRRYGDMKDRITLSVKDLHKEAMGWFEKSCEDEQQKKKLASAWYYVTYNPNHRDEKLTFLSFPWIVGDVLLDIKAENAQRQSVEEKTSGLVSI
In the case of B1, the binding result is listed as “binds”.
